The text below walks through data of PMC3226628, “The Golgi Localization of GOLPH2 (GP73/GOLM1) Is Determined by the Transmembrane and Cytoplamic Sequences” (PLoS ONE, 2011).

Data set [1] deals with the molecule itself. Briefly: SDS-PAGE under non-reducing conditions with immunoblot; lysates of HeLa cells 36 h after transfection with pCR3.1-GOLPH2-FLAG or mutants; immunoblot with FLAG antibody.
Data set [2] concerns the molecule itself. The data set can be described thus: SDS-PAGE under non-reducing and reducing conditions; purified GOLPH2-Δ(1–55) and cysteine mutants boiled with 0 to 100 mM 2-mercaptoethanol, 10% SDS-PAGE; shows disulfide-linked oligomers.
Data set [3] concerns the molecule itself. The data set can be described thus: native gel or EMSA; native-PAGE of purified GOLPH2-Δ(1–55) and cysteine mutants, loaded directly or boiled with 2% SDS and 140 mM 2-mercaptoethanol; BSA monomer, dimer and tetramer as markers.

B1: GOLPH2-FLAG (wild-type, full length) (natural protein, human, UniProt Q8NBJ4 1-401, looked up)
chain: MMGLGNGRRSMKSPPLVLAALVACIIVLGFNYWIASSRSVDLQTRIMELEGRVRRAAAERGAVELKKNEFQGELEKQREQLDKIQSSHNFQLESVNKLYQDEKAVLVNNITTGERLIRVLQDQLKTLQRNYGRLQQDVLQFQKNQTNLERKFSYDLSQCINQMKEVKEQCEERIEEVTKKGNEAVASRDLSENNDQRQQLQALSEPQPRLQAAGLPHTEVPQGKGNVLGNSKSQTPAPSSEVVLDSKRQVEKEETNEIQVVNEEPQRDRLPQEPGREQVVEDRPVGGRGFGGAGELGQTPQVQAALSVSQENPEMEGPERDQLVIPDGQEEEQEAAGEGRNQQKLRGEDDYNMDENEAESETDKQAALAGNDRNIDVFNVEDQKRDTINLLDQREKRNHTL
notes: Golgi phosphoprotein 2 (GOLPH2, GP73, GOLM1), human, full-length cDNA from Huh7 cells; also called pCR3.1-GOLPH2-FLAG; wild-type GOLPH2; source: HeLa, transfected, in lysate; not shown: FLAG, C-terminal, kept
As for B1, the “stoichiometry N” value in data set [1] came out at 2.

B2: GOLPH2-Δ(1–55) (domain or fragment, human, UniProt Q8NBJ4 56-401, looked up)
chain: AAAERGAVELKKNEFQGELEKQREQLDKIQSSHNFQLESVNKLYQDEKAVLVNNITTGERLIRVLQDQLKTLQRNYGRLQQDVLQFQKNQTNLERKFSYDLSQCINQMKEVKEQCEERIEEVTKKGNEAVASRDLSENNDQRQQLQALSEPQPRLQAAGLPHTEVPQGKGNVLGNSKSQTPAPSSEVVLDSKRQVEKEETNEIQVVNEEPQRDRLPQEPGREQVVEDRPVGGRGFGGAGELGQTPQVQAALSVSQENPEMEGPERDQLVIPDGQEEEQEAAGEGRNQQKLRGEDDYNMDENEAESETDKQAALAGNDRNIDVFNVEDQKRDTINLLDQREKRNHTL
notes: Golgi phosphoprotein 2 (GOLPH2, GP73, GOLM1), human, residues 1-55 deleted; C-terminal luminal region, amino acids 56-401; also called purified wild-type GOLPH2; GOLPH2-Δ(1–55) fusion protein; source: E. coli BL21 (DE3), pET22b(+), purified (Ni-NTA)
As to B2, the binding result in data set [2] was “binds”.

B3: GOLPH2-Δ(1–55) C159A (domain or fragment, human, UniProt Q8NBJ4 56-401, looked up)
chain: AAAERGAVELKKNEFQGELEKQREQLDKIQSSHNFQLESVNKLYQDEKAVLVNNITTGERLIRVLQDQLKTLQRNYGRLQQDVLQFQKNQTNLERKFSYDLSQAINQMKEVKEQCEERIEEVTKKGNEAVASRDLSENNDQRQQLQALSEPQPRLQAAGLPHTEVPQGKGNVLGNSKSQTPAPSSEVVLDSKRQVEKEETNEIQVVNEEPQRDRLPQEPGREQVVEDRPVGGRGFGGAGELGQTPQVQAALSVSQENPEMEGPERDQLVIPDGQEEEQEAAGEGRNQQKLRGEDDYNMDENEAESETDKQAALAGNDRNIDVFNVEDQKRDTINLLDQREKRNHTL
notes: GOLPH2 (GP73, GOLM1), human, residues 1-55 deleted (amino acids 56-401), C159A; also called single mutant C159A; source: E. coli BL21 (DE3), pET22b(+), purified (Ni-NTA)
Take B3: the binding result in data set [3] is given as “binds”.

B4: GOLPH2-Δ(1–55) C170A (domain or fragment, human, UniProt Q8NBJ4 56-401, looked up)
chain: AAAERGAVELKKNEFQGELEKQREQLDKIQSSHNFQLESVNKLYQDEKAVLVNNITTGERLIRVLQDQLKTLQRNYGRLQQDVLQFQKNQTNLERKFSYDLSQCINQMKEVKEQAEERIEEVTKKGNEAVASRDLSENNDQRQQLQALSEPQPRLQAAGLPHTEVPQGKGNVLGNSKSQTPAPSSEVVLDSKRQVEKEETNEIQVVNEEPQRDRLPQEPGREQVVEDRPVGGRGFGGAGELGQTPQVQAALSVSQENPEMEGPERDQLVIPDGQEEEQEAAGEGRNQQKLRGEDDYNMDENEAESETDKQAALAGNDRNIDVFNVEDQKRDTINLLDQREKRNHTL
notes: GOLPH2 (GP73, GOLM1), human, residues 1-55 deleted (amino acids 56-401), C170A; also called single mutant C170A; source: E. coli BL21 (DE3), pET22b(+), purified (Ni-NTA)
On to B4, for which the binding result in data set [2] is on record as “binds”.

B5: GOLPH2-Δ(1–55) C159A-C170A (domain or fragment, human, UniProt Q8NBJ4 56-401, looked up)
chain: AAAERGAVELKKNEFQGELEKQREQLDKIQSSHNFQLESVNKLYQDEKAVLVNNITTGERLIRVLQDQLKTLQRNYGRLQQDVLQFQKNQTNLERKFSYDLSQAINQMKEVKEQAEERIEEVTKKGNEAVASRDLSENNDQRQQLQALSEPQPRLQAAGLPHTEVPQGKGNVLGNSKSQTPAPSSEVVLDSKRQVEKEETNEIQVVNEEPQRDRLPQEPGREQVVEDRPVGGRGFGGAGELGQTPQVQAALSVSQENPEMEGPERDQLVIPDGQEEEQEAAGEGRNQQKLRGEDDYNMDENEAESETDKQAALAGNDRNIDVFNVEDQKRDTINLLDQREKRNHTL
notes: GOLPH2 (GP73, GOLM1), human, residues 1-55 deleted (amino acids 56-401), C159A and C170A; Monomer on non-reducing SDS-PAGE, same migration as the wild type on native-PAGE; also called double mutant C159A–C170A; source: E. coli BL21 (DE3), pET22b(+), purified (Ni-NTA)
As for B5, in data set [3], the binding result is on record as “binds”.
